From patent US20060134122A1, “Peptides of syndecan-1 for inhibition of cancer” (priority 2004, published 2006)

B1: GST-mS1ED: recombinant mouse syndecan-1 ectodomain expressed as a fusion protein with GST (protein)
chain: QIVAVNVPPEDQDGSGDDSDNFSGSGTGALPDTLSRQTPSTWKDVWLLTATPTAPEPTSSNTETAFTSVLPAGEKPEEGEPVLHVEAEPGFTARDKEKEVTTRPRETVQLPITQRASTVRVTTAQAAVTSHPHGGMQPGLHETSAPTAPGQPDHQPPRVEGGGTSVIKEVVEDGTANQLPAGEGSGEQDFTFETSGENTAVAAVEPGLRNQPPVDEGATGASQSLLDRKEVLG
modifications: left off: a dimerising Fc or GST
notes: recombinant mouse syndecan-1 ectodomain expressed as a fusion protein with GST
B2: GST-mS4ED: recombinant GST fusion of mouse syndecan-4 ectodomain, specificity control (protein)
chain: ESIRETEVIDPQDLLEGRYFSGALPDDEDAGGSDDFELSGSGDLDDTEEPRPFPEVIEPLVPLDNHIPENAQPGIRVPSEPKELEENEVIPKRAPSDVGDDMSNKVSMSSTAQGSNIFERTE
modifications: left off: a dimerising Fc or GST
notes: recombinant GST fusion of mouse syndecan-4 ectodomain, specificity control

Test system: MDA-MB-435 human mammary carcinoma cells
Test: Cell spreading assay, MDA-MB-435
Format: cell-based
Settings: 2 h, GST-mS1ED 20 μM; for cell spreading on VN: 10 μg/mL VN, LM609 30 μg/mL
Protocol: FIGS. 2A-C—Sdc-1 adhesion-mediated cell spreading correlates with αvβ3 integrin. expression and activity. (FIG. 2A) FACS analysis of αvβ3 integrin expression (mAb LM609) in human mammary carcinoma cells against an IgG isotype control. (FIG. 2B) Depicted on split panels are phalloidin-stained MDA-MB-435 (upper half) and MCF-7 (lower half) cells 2 h after plating on wells coated with mAb B-B4 in plating medium alone or medium containing either 30 μg/mL mAb LM609, 1 μg/mL mAb 13 or 20 μM GST-mS1ED. Bar, 50 μm. (FIG. 2C) Untreated MDA-MB-435, MDA-MB-231 and MCF-7 cells (columns 1 and 4) and cells pretreated in suspension with 1 μg/mL mAb 13 (columns 2 and 3) were seeded on wells coated with either mAb B-B4 or COL I in plating medium alone (columns 1, 2 and 4) or medium containing 20 μM GST-mS1ED (column 3). Cells were incubated at 37° C. for 2 h, fixed, permeabilized and stained with WOW1 and an Alexa 488-conjugated secondary. Panel insets are corresponding phase contrast pictures. Bar, 20 μm.
FIG. 3—MDA-MB-435, but not MCF-7, human carcinoma cells display functional coupling of Sdc-1 and αvβ3 integrins on VN. Depicted are phalloidin-stained cells 2 h after plating on wells coated with 10 μg/mL VN (upper half) or FN (lower half) in plating medium alone or medium containing either 30 μg/mL mAb LM609, 25 μg/mL mAb 13, 20 μM GST-mS1ED or -mS4ED. Bar, 50 μm.
Sdc-1 adhesion-mediated cell spreading correlates with αvβ3 integrin expression and activity. To test whether the αvβ3 integrin's dependence on Sdc-1 extends to other carcinoma cells, the inventors screened a panel of human carcinoma cells with mAb LM609 using FACS analysis. […] To test the collaboration between Sdc-1 and αvβ3 integrin when cells are adherent via Sdc-1, MDA-MB-435 and MCF-7 cells were plated on wells coated with hS1-specific mAb B-B4. While αvβ3-positive MDA-MB-435 cells spread on this antibody substratum, their spreading is blocked (similar to results obtained in the MDA-MB-231; Beauvais and Rapraeger, 2003) by treatment with either mAb LM609 (added either before plating or 30 min after plating, when cells have already begun to spread) or GST-mS1ED protein (which is not recognized by mAb B-B4).
MDA-MB-435, but not MCF-7, human carcinoma cells display functional coupling of Sdc-1 and αvβ3 integrin on VN. To test whether activation of αvβ3 integrin activation on matrix is also functionally coupled to Sdc-1, MDA-MB-435 and MCF-7 cells were plated on either VN or FN (FIG. 3). MDA-MB-435 cells spread on VN and require αvβ3 integrins for this activity as spreading is blocked by mAb LM609. […]

Molecule | cell spreading on FN (10 μg/mL FN, mAb 13 25 μg/mL) | cell spreading on VN | cell spreading on mAb B-B4 (LM609 30 μg/mL (before or 30 min after plating))
B1 | retain their ability to spread | fail to spread | blocked
B2 | – | no effect | –
